This is an account of results in patent publication US20210169880A1.

One test concerns the target human ROR1 (human) (UniProt Q01973). The test is described as follows: cell-based or functional assay.
In the next test the target is human SLAMF7 (human) (UniProt Q9NQ25). The test is described as follows: cell-based or functional assay.

Where only a bound is given, the exact number is not on record here.

B1: ROR1 CAR with 4-1BB costimulatory domain (protein)
chain: QVQLVESGGALVQPGGSLTLSCKASGFDFSAYYMSWVRQAPGKGLEWIATIYPSSGKTYYAASVQGRFTISADNAKNTVYLQMNSLTAADTATYFCARDSYADDGALFNIWGQGTLVTVSSGGGGSGGGGSGGGGSQLVLTQSPSVSAALGSSAKITCTLSSAHKTDTIDWYQQLAGQAPRYLMYVQSDGSYEKRSGVPDRFSGSSSGADRYLIISSVQADDEADYYCGADYIGGYVFGGGTQLTVGESKYGPPCPPCPMFWVLVVVGGVLACYSLLVTVAFIIFWVKRGRKKLLYIFKQPFMRPVQTTQEEDGCSCRFPEEEEGGCELRVKFSRSADAPAYQQGQNQLYNELNLGRREEYDVLDKRRGRDPEMGGKPRRKNPQEGLYNELQKDKMAEAYSEIGMKGERRRGKGHDGLYQGLSTATKDTYDALHMQALPPR
For the molecule B1, in the test with human ROR1 (human), the IFN-γ in supernatant (ELISA), CD8+ CAR-T cells co-cultured with RCH-ACV, untreated amounted to 1310 pg/mL; the proliferation index (CFSE, 72 h), CD8+ CAR-T cells co-cultured with RCH-ACV, untreated (proliferation index) was 2.84; the specific lysis of K562/ROR1 target cells by CD8+ CAR-T cells, no dasatinib, t=10 h amounted to 94%; the specific lysis of K562/ROR1 target cells by CD8+ CAR-T cells, no dasatinib, up to t=5 h was determined as 73%. For the same molecule, in the test with human ROR1 (human), the specific lysis of ROR1+ RCH-ACV target cells by CD8+ CAR-T cells, untreated, t=8 h was greater than 90%.

B2: SLAMF7 CAR with CD28 costimulatory domain (protein)
chain: EVQLVESGGGLVQPGGSLRLSCAASGFDFSRYWMSWVRQAPGKGLEWIGEINPDSSTINYAPSLKDKFIISRDNAKNSLYLQMNSLRAEDTAVYYCARPDGNYWYFDVWGQGTLVTVSSGGGGSGGGGSGGGGSDIQMTQSPSSLSASVGDRVTITCKASQDVGIAVAWYQQKPGKVPKLLIYWASTRHTGVPDRFSGSGSGTDFTLTISSLQPEDVATYYCQQYSSYPYTFGQGTKVEIKESKYGPPCPPCPAPPVAGPSVFLFPPKPKDTLMISRTPEVTCVVVDVSQEDPEVQFNWYVDGVEVHNAKTKPREEQFQSTYRVVSVLTVLHQDWLNGKEYKCKVSNKGLPSSIEKTISKAKGQPREPQVYTLPPSQEEMTKNQVSLTCLVKGFYPSDIAVEWESNGQPENNYKTTPPVLDSDGSFFLYSRLTVDKSRWQEGNVFSCSVMHEALHNHYTQKSLSLSLGKMFWVLVVVGGVLACYSLLVTVAFIIFWVRSKRSRGGHSDYMNMTPRRPGPTRKHYQPYAPPRDFAAYRSRVKFSRSADAPAYQQGQNQLYNELNLGRREEYDVLDKRRGRDPEMGGKPRRKNPQEGLYNELQKDKMAEAYSEIGMKGERRRGKGHDGLYQGLSTATKDTYDALHMQALPPR
In the test with human SLAMF7 (human), B2 gave a specific lysis of K562/SLAMF7 target cells by CD8+ CAR-T cells, no dasatinib, t=6 h of 67% and a specific lysis of K562/SLAMF7 target cells by CD8+ CAR-T cells, no dasatinib, t=12 h of 85%.

B3: SLAMF7 CAR with 4-1BB costimulatory domain (protein)
chain: EVQLVESGGGLVQPGGSLRLSCAASGFDFSRYWMSWVRQAPGKGLEWIGEINPDSSTINYAPSLKDKFIISRDNAKNSLYLQMNSLRAEDTAVYYCARPDGNYWYFDVWGQGTLVTVSSGGGGSGGGGSGGGGSDIQMTQSPSSLSASVGDRVTITCKASQDVGIAVAWYQQKPGKVPKLLIYWASTRHTGVPDRFSGSGSGTDFTLTISSLQPEDVATYYCQQYSSYPYTFGQGTKVEIKESKYGPPCPPCPAPPVAGPSVFLFPPKPKDTLMISRTPEVTCVVVDVSQEDPEVQFNWYVDGVEVHNAKTKPREEQFQSTYRVVSVLTVLHQDWLNGKEYKCKVSNKGLPSSIEKTISKAKGQPREPQVYTLPPSQEEMTKNQVSLTCLVKGFYPSDIAVEWESNGQPENNYKTTPPVLDSDGSFFLYSRLTVDKSRWQEGNVFSCSVMHEALHNHYTQKSLSLSLGKMFWVLVVVGGVLACYSLLVTVAFIIFWVKRGRKKLLYIFKQPFMRPVQTTQEEDGCSCRFPEEEEGGCELRVKFSRSADAPAYQQGQNQLYNELNLGRREEYDVLDKRRGRDPEMGGKPRRKNPQEGLYNELQKDKMAEAYSEIGMKGERRRGKGHDGLYQGLSTATKDTYDALHMQALPPR
In the test with human SLAMF7 (human), B3 gave a specific lysis of K562/SLAMF7 target cells by CD8+ CAR-T cells, no dasatinib, t=6 h of 63% and a specific lysis of K562/SLAMF7 target cells by CD8+ CAR-T cells, no dasatinib, t=12 h of 83%.
